This is an account of results in PMC7729135, “PPARγ S273 Phosphorylation Modifies the Dynamics of Coregulator Proteins Recruitment” (Frontiers in Endocrinology, 2020).

B1: PPARγ LBD (aa207-aa477), purified (domain or fragment, UniProt P37231-2 207-477, looked up)
chain: ESADLRALAKHLYDSYIKSFPLTKAKARAILTGKTTDKSPFVIYDMNSLMMGEDKIKFKHITPLQEQSKEVAIRIFQGCQFRSVEAVQEITEYAKSIPGFVNLDLNDQVTLLKYGVHEIIYTMLASLMNKDGVLISEGQGFMTREFLKSLRKPFGDFMEPKFEFAVKFNALELDDSDLAIFIAVIILSGDRPGLLNVKPIEDIQDNLLQALELQLKLNHPESSQLFAKLLQKMTDLRQIVTEHVQLLQVIKKTETDMSLHPLLQEIYKDLY
notes: also called PPARγ wt; PPARγ wild-type

Experiment [1] addresses VP16-PPARγ (LBD region of PPARγ fused to the VP16 transactivation domain) (UniProt P37231). The experiment is described as follows: mammalian two-hybrid assay. The note with it: for response: read off a plot; for other: Dissociation ratio / other: Fold activation: Rosiglitazone against no treatment.
In experiment [2] the target is Gal-SMRT (ID1 + ID2, human SMRT from 982 to the C terminus) (human). The experiment is described as follows: two-hybrid; mammalian two-hybrid in Hek293T cells (corepressors): Gal4 DBD-corepressor + VP16-PPARγ LBD + pGRE-LUC + Renilla control; with or without 1 μM Rosiglitazone for 24 h; interaction rate = luminescence divided by that of the corepressor without PPARγ.

Experiment [3] addresses T1, GST-tagged SMRT (aa2041-aa2359) (UniProt Q9Y618 2041-2359, FITC (fluorescein isothiocyanate) label in the fluorescence anisotropy assay; unlabelled in the pull-down).
T1 construct: SMRT aa2041-aa2359; source: modified E. coli BL21(DE3) strain
The experiment is described as follows: fluorescence polarisation; fluorescence anisotropy: PPARγ wt, S273A or S273D (200 μM to 6 nM) titrated into FITC-labelled affinity purified corepressor, in the elution buffer of the corepressor; Kd from a Hill model. The note with it: both partners purified.

Experiment [4] has as its target T2, Gal-PGC1-α (mouse PGC1-α 136-340) (mouse, UniProt O70343 136-340).
T2 construct: mouse PGC1-α, amino acids 136 to 340, in the vector pM (Clontech); holds ID1 LKKLL (residues 142-146); also called PGC1-α wt; Gal4-PGC1-α; source: COS-7 cells, transfected (mammalian two-hybrid fusion)
T2 sequence (looked up): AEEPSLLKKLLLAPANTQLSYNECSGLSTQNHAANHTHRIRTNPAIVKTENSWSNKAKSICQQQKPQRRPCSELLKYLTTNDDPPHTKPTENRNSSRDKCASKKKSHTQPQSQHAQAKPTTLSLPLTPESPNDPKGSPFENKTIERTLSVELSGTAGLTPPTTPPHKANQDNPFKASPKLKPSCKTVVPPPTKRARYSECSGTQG
The experiment is described as follows: two-hybrid; as a1 (COS-7 cells, coactivators) with co-transfected pCDNA-CDK5 (CDK5 and P35). The note with it: partners not purified.

Experiment [5] addresses T3, Gal-NCoR (ID1 + ID2 + ID3, mouse NCoR from 1629 to the C terminus) (mouse, UniProt Q60974 1629-2453).
T3 construct: mouse NCoR from 1629 to the C terminus (ID1 + ID2 + ID3), in the vector pM (Clontech); Plasmid provided by A. Le Maire (CBS, CNRS); also called NCoR wt; source: HEK293T cells, transfected (mammalian two-hybrid fusion)
T3 sequence (looked up): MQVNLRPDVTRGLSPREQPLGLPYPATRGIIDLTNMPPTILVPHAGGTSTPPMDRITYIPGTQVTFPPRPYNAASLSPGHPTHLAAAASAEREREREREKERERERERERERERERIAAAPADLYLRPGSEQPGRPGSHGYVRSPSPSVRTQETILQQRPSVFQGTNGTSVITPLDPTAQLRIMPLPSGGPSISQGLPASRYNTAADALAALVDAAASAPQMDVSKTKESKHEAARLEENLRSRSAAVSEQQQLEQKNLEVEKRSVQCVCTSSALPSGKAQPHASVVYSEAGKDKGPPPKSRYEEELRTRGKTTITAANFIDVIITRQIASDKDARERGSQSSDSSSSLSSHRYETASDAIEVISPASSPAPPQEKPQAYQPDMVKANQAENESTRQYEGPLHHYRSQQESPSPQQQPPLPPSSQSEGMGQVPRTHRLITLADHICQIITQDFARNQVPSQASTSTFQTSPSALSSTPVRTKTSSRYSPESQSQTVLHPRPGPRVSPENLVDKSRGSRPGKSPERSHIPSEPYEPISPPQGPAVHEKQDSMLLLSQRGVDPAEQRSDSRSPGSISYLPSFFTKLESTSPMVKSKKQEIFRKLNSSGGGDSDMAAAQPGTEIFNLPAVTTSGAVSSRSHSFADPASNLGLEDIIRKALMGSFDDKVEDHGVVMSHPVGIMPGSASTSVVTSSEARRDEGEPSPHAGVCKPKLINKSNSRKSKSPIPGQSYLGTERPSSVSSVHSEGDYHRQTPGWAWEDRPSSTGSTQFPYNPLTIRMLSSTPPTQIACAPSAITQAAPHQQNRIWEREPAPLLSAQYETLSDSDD
The experiment is described as follows: two-hybrid; as a2 (Hek293T cells, corepressors) with co-transfected pCDNA-CDK5 (CDK5 and P35). The note with it: partners not purified.

The target in experiment [6] is T2, Gal-PGC1-α (mouse PGC1-α 136-340). The experiment is described as follows: two-hybrid; mammalian two-hybrid in COS-7 cells (coactivators): Gal4 DBD-coactivator + VP16-PPARγ LBD + pGRE-LUC + Renilla control; with or without 1 μM Rosiglitazone for 24 h; interaction rate = luminescence divided by that of the empty Gal4 vector. The note with it: partners not purified.

Experiment [7] concerns the target T4, Gal-TRAP220 (ID1 + ID2, human TRAP220 404-654) (human, UniProt Q15648 404-654).
T4 construct: human TRAP220, amino acids 404 to 654 (ID1 + ID2), in the vector pM (Clontech); source: COS-7 cells, transfected (mammalian two-hybrid fusion)
Described as above. The note with it: partners not purified.

Experiment [8] concerns the target T5, Gal-TIF2 (three interaction domains, human TIF2 624-869) (human, UniProt Q15596 624-869).
T5 construct: also called TIF2 wt; source: COS-7 cells, transfected (mammalian two-hybrid fusion)
T5 sequence (looked up): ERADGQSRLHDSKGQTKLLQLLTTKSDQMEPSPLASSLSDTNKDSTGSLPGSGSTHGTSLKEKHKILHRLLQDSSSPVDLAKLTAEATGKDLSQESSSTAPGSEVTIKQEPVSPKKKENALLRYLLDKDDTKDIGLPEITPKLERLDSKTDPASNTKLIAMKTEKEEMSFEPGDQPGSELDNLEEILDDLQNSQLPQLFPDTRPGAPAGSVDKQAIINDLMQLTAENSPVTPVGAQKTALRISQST
The description is as above. The note with it: partners not purified.

The next experiment addresses Gal-SMRT ID2m (human). The experiment is described as follows: two-hybrid; mammalian two-hybrid in Hek293T cells (corepressors): Gal4 DBD-corepressor + VP16-PPARγ LBD + pGRE-LUC + Renilla control; with or without 1 μM Rosiglitazone for 24 h; interaction rate = luminescence divided by that of the corepressor without PPARγ.
In experiment [9] the target is T3, Gal-NCoR (ID1 + ID2 + ID3, mouse NCoR …). Described as above. The note with it: partners not purified.
Experiment [10] has as its target B1. The experiment is described as follows: fluorescence polarisation; fluorescence anisotropy: PPARγ wt, S273A or S273D (200 μM to 6 nM) titrated into FITC-labelled affinity purified coactivator, in the elution buffer of the coactivator, with Rosiglitazone (3× molar excess); Kd from a Hill model. The note with it: both partners purified. (In fluorescence polarisation assays a small probe gives low polarisation when free and higher when bound to something large.)

Experiment [11] has as its target B1. The experiment is described as follows: pull-down; coactivators: extract of His tagged PGC1-α on TALON resin or of GST-tagged TIF2 on Glutathione Sepharose, washed; then purified tag-free PPARγ or S273A, pre-incubated 20 min with rosiglitazone, 2 h at 4°C; eluate blotted with anti-PPARγ. The note with it: both partners purified.

T4 sequence (Q15648 404-654): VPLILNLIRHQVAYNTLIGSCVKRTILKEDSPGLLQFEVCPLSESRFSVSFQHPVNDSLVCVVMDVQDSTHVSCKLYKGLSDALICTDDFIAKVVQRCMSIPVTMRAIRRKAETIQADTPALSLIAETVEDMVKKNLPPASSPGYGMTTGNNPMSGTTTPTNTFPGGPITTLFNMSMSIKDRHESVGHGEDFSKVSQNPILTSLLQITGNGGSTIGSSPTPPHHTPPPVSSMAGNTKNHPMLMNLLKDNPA
Gal-SMRT (ID1 + ID2, human SMRT from 982 to the C terminus) (human), sequence (Q9Y618 whole entry, the tested form may be a part): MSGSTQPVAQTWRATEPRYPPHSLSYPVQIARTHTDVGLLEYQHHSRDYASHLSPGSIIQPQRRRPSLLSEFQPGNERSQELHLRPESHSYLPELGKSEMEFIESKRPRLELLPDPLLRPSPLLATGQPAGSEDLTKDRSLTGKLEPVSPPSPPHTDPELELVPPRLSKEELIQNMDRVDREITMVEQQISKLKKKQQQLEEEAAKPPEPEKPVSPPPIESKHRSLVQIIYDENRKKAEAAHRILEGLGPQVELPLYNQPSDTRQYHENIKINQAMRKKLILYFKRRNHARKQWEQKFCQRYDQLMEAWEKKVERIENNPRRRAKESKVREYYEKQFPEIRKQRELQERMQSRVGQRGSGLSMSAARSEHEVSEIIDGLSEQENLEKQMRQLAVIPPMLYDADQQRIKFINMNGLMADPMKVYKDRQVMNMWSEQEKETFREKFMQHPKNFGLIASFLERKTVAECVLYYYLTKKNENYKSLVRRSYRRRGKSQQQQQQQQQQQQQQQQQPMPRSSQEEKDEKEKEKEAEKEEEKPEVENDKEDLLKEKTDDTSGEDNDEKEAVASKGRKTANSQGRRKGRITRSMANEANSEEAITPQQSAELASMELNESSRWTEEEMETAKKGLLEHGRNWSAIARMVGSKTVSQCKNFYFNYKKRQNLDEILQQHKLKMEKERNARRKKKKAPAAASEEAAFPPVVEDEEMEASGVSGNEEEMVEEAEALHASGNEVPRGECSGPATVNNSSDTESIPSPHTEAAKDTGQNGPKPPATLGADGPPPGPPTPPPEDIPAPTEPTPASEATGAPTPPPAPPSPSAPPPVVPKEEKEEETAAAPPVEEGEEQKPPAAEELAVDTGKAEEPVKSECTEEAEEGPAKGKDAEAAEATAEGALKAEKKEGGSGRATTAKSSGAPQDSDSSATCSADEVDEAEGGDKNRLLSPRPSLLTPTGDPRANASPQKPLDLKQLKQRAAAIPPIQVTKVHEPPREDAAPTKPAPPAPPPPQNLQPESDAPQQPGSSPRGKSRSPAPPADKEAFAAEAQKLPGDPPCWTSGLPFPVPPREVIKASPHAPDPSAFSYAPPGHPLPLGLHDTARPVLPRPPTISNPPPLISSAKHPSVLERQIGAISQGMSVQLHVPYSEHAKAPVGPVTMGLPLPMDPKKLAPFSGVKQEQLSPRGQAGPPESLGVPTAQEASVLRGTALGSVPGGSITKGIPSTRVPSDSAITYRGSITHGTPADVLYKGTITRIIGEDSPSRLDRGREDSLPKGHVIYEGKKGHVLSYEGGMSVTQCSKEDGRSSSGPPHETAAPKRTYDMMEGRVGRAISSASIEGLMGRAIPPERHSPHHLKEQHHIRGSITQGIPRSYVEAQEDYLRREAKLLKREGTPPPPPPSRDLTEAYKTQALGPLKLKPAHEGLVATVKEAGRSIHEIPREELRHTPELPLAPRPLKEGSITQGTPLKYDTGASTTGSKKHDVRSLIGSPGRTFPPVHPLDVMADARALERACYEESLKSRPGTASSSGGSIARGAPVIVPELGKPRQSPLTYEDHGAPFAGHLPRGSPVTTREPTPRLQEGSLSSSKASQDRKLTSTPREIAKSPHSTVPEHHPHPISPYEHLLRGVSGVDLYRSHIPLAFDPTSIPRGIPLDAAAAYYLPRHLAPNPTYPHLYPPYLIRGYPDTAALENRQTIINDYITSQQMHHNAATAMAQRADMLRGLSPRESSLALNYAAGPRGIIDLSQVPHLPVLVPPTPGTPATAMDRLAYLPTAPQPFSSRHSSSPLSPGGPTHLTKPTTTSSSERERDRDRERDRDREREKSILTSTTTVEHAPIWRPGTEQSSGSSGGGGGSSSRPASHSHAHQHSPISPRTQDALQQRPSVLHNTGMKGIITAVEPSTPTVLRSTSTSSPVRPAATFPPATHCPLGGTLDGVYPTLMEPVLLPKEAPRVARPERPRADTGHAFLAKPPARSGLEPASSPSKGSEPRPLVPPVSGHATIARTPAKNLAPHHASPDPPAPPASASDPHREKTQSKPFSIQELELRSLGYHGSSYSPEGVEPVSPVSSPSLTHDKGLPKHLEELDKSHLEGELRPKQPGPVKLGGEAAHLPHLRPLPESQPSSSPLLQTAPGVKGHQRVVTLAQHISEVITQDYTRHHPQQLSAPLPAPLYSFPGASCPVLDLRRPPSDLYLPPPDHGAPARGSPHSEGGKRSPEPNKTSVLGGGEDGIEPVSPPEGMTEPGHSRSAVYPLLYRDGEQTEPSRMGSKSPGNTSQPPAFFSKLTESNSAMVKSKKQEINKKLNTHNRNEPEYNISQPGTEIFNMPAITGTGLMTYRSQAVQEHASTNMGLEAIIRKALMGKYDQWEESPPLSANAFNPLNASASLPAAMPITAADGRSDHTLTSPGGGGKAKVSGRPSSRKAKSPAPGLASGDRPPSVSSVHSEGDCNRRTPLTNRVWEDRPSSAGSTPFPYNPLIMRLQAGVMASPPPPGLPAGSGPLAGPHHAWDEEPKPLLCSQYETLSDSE
T1 sequence (Q9Y618 2041-2359): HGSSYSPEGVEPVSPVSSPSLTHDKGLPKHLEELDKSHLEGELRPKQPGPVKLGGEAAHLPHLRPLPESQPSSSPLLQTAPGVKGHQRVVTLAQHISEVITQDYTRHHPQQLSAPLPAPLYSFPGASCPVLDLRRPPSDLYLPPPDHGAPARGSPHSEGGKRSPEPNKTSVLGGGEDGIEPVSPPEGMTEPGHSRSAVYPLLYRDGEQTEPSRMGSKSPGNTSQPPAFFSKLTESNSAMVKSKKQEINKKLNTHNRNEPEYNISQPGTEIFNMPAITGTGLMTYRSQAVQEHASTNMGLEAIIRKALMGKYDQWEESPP

Turning to “Gal-SMRT (ID1 + ID2, human SMRT from 982 to the C terminus) V2097A; I2098A”, in [1] (No treatment, parent: est. 2.3), the response came to 2.4. Moreover, the other: Dissociation ratio in experiment [1] amounted to 58%.
As for “Gal-TIF2 (three interaction domains, human TIF2 624-869) (from UniProt Q15596) ID3 LRYLL changed to LRYAA”, the response was determined as 0.45 in experiment [1] (No treatment, parent: est. 0.95) and 0.75 in experiment [1] (Rosiglitazone, parent: est. 1.3). The molecule further gave an other: Fold activation in experiment [1] of 0.5.
Consider “VP16-PPARγ (LBD region of PPARγ fused to the VP16 transactivation domain) (from UniProt P37231 238-503) (domain or fragment)”, for which, in [2], the dissociation rate in the presence of the ligand (Rosiglitazone) was found to be 65%.
Turning to “Gal-NCoR (ID1 + ID2 + ID3, mouse NCoR from 1629 to the C terminus) (from UniProt Q60974) ID3 IDVII changed to IDVAA”, the response in [1] (No treatment, parent: est. 3.6) was 2.2; in experiment [1] (Rosiglitazone, parent: est. 1.2), 1.3. Besides, the other: Dissociation ratio in experiment [1] was 39%.
“Gal-TIF2 (three interaction domains, human TIF2 624-869) (from UniProt Q15596) ID2 LHRLL changed to LHRAA”: the response was 1.3 in experiment [1] (No treatment, parent: est. 1.0) and 1.7 in experiment [1] (Rosiglitazone, parent: est. 1.4). In experiment [1], the other: Fold activation stood at 0.3.
Broadly, the Kd is the free concentration of one partner at which half of the binding sites on the other are occupied at equilibrium, for simple one-to-one binding. In experiment [3], B1 showed a Kd of 4.06 ± 1.01 µM.

B2: VP16-PPARγ (LBD region of PPARγ fused to the VP16 transactivation domain) (domain or fragment, UniProt P37231 238-503, looked up)
chain: DLRALAKHLYDSYIKSFPLTKAKARAILTGKTTDKSPFVIYDMNSLMMGEDKIKFKHITPLQEQSKEVAIRIFQGCQFRSVEAVQEITEYAKSIPGFVNLDLNDQVTLLKYGVHEIIYTMLASLMNKDGVLISEGQGFMTREFLKSLRKPFGDFMEPKFEFAVKFNALELDDSDLAIFIAVIILSGDRPGLLNVKPIEDIQDNLLQALELQLKLNHPESSQLFAKLLQKMTDLRQIVTEHVQLLQVIKKTETDMSLHPLLQEIYKD
notes: plasmid provided by A. Le Maire (CBS, CNRS); also called PPARγ wt; source: COS-7 or HEK293T cells, transfected (mammalian two-hybrid fusion)
Regarding B2, the “interaction rate in the two-hybrid assay (fold), with CDK5” value in experiment [4] and in experiment [5] was 2 fold in each case. Further, the “interaction rate in the two-hybrid assay (fold)” value in experiment [6] came out at 7 fold; in experiment [7], 4 fold. The “interaction rate in the two-hybrid assay (fold), in absence of CDK5” value in [6] was found to be 5 fold; in experiment [8], 1.5 fold; in [9] it was 4 fold. For the same molecule, the fold reduction of the interaction against SMRT wt with Gal-SMRT ID2m (human) came to 6 fold.

B3: His tagged PGC1-α (aa138-aa341) (domain or fragment, UniProt O70343 138-341, looked up)
chain: EPSLLKKLLLAPANTQLSYNECSGLSTQNHAANHTHRIRTNPAIVKTENSWSNKAKSICQQQKPQRRPCSELLKYLTTNDDPPHTKPTENRNSSRDKCASKKKSHTQPQSQHAQAKPTTLSLPLTPESPNDPKGSPFENKTIERTLSVELSGTAGLTPPTTPPHKANQDNPFKASPKLKPSCKTVVPPPTKRARYSECSGTQGS
modifications: FITC (fluorescein isothiocyanate) label in the fluorescence anisotropy assay; unlabelled in the pull-down
notes: PGC1-α aa138-aa341; source: E. coli BL21 (DE3)
As to B3, the Kd in experiment [10] worked out at 55.8 ± 2.9 µM.

B4: GST-tagged TIF2 (aa563-aa757) (domain or fragment, UniProt Q15596 563-757, looked up)
chain: QNSPVNMNPPPLSKMGSLDSKDCFGLYGEPSEGTTGQAESSCHPGEQKETNDPNLPPAVSSERADGQSRLHDSKGQTKLLQLLTTKSDQMEPSPLASSLSDTNKDSTGSLPGSGSTHGTSLKEKHKILHRLLQDSSSPVDLAKLTAEATGKDLSQESSSTAPGSEVTIKQEPVSPKKKENALLRYLLDKDDTKDI
modifications: FITC (fluorescein isothiocyanate) label in the fluorescence anisotropy assay; unlabelled in the pull-down
notes: TIF2 aa563-aa757; source: E. coli BL21 (DE3)
In the case of B4, the binding result in experiment [11] is “binds”.
